The assay deals with human Argonaute-2 (human) (UniProt Q9UKV8). Description: ITC. In general terms: Isothermal titration calorimetry measures the heat released or taken up as one component is titrated into another.

One may read the Kd as the concentration at which binding is half-saturated. A low value points to a tighter complex. With VNRTDLDPRVLSNSGWGQTPIKQNTAWDTETSPRGE (domain or fragment) [hGW182 (TNRC6A) motif-1], the Kd came to 118 nM.

On to TVDNGTSAWGKPIDSGPSWGEP [hGW182 (TNRC6A) hook motif], for which the Kd stood at 234 nM, the fold lower affinity than without competitor (with 5 μM motif-2) is 7 fold and the fold lower affinity than without competitor (with 10 μM motif-2) stood at 15 fold.

(Values after publication PMC5915679.)
